FireProtDB (doi:10.1006/jmbi.2001.4728)

B1: Cytochrome c-551, P00099 (parent)
chain: MKPYALLSLLATGTLLAQGAWAEDPEVLFKNKGCVACHAIDTKMVGPAYKDVAAKFAGQAGAEAELAQRIKNGSQGVWGPIPMPPNAVSDDEAQTLAKWVLSQK

Variants of: B1
Conditions: Pseudomonas aeruginosa (strain ATCC 15692 / DSM 22644 / CIP 104116 / JCM 14847 / LMG 12228 / 1C / PRS 101 / PAO1); pH 7; 10 °C; Urea; Fluorescence; sodium phosphate 50 mM; reversible: yes; structure 451C; whole UniProt chain shown

Row | Variant | ddG of mutation (higher = less stable) | denaturant m value | denaturant midpoint (higher = more stable) | unfolding free energy
1 | MKPYALLSLLATGTLLAQGAWAEDPEVLFKNKGCVACHAIDTKMVGPAYKDVAAKFAGQAGAEAELAQRIKNGSQGVFGPIPMPPNAVSDDEAQTLAKWVLSQK [W78F] | 1.9 kcal/mol | 1.1 kcal/mol/M | 4.6 M | 5.2 kcal/mol
2 | MKPYALLSLLATGTLLAQGAWAEDPEVLFKNKGCVACHAIDTKMVGPAYKDVAAKFAGQAGAEAELAQRIKNGSQGVWGPIPMPPNAVSDDEAQTLAKFVLSQK [W99F] | 1.2 kcal/mol | 1 kcal/mol/M | 5.6 M | 5.9 kcal/mol
3 | MKPYALLSLLATGTLLAQGAWAEDPEVLFKNKGCVACHAIDTKMVGPAYKDVAAKFAGQAGAEAELAQRIKNGSQGVWGPIPMPPNAVSDDVAQTLAKWVLSQK [E92V] | 2 kcal/mol | 1.2 kcal/mol/M | 4.3 M | 5.1 kcal/mol
4 | MKPYALLSLLATGTLLAQGAWAEDPEVLFKNKGCVACHAIDTKMVGPAYKDVAAKFAGQAGAEAELAQRIKNGSQGVWGPIPMPPNAVSDDQAQTLAKWVLSQK [E92Q] | 0.9 kcal/mol | 1.1 kcal/mol/M | 5.7 M | 6.2 kcal/mol
